Assays:
trypsin = assay: Cell-free fluorogenic assay of BGAR-MCA cleavage by trypsin; type: biochemical; details: 50 ng/ml rSPLUNC1; 1.0 or 0.3 U/ml trypsin
Protocol: For cell-free assays, reactions were carried out in 50 μl Ringer in a 96 well plate format with 100 μM BGAR-MCA. To measure endogenous protease activity in human bronchial epithelial cultures, 30 μl Ringer with 100 μM BGAR-MCA were placed directly onto the mucosal surfaces of human bronchial epithelial cultures grown on 12 mm T-clear inserts and the cultures were assayed in 12 well plates.

[1] = molecular target: T1, ENaC containing the βS518C mutant (Rattus norvegicus, UniProt P37089+P37090+P37091, S518C); assay: Oocyte current of ENaC containing the βS518C mutant with MTSET; type: cell-based; details: SPLUNC1 coexpression, n=6
T1 construct: expressed in transfected cells; host or cells: Xenopus oocytes
T1 sequence (P37089 1-698): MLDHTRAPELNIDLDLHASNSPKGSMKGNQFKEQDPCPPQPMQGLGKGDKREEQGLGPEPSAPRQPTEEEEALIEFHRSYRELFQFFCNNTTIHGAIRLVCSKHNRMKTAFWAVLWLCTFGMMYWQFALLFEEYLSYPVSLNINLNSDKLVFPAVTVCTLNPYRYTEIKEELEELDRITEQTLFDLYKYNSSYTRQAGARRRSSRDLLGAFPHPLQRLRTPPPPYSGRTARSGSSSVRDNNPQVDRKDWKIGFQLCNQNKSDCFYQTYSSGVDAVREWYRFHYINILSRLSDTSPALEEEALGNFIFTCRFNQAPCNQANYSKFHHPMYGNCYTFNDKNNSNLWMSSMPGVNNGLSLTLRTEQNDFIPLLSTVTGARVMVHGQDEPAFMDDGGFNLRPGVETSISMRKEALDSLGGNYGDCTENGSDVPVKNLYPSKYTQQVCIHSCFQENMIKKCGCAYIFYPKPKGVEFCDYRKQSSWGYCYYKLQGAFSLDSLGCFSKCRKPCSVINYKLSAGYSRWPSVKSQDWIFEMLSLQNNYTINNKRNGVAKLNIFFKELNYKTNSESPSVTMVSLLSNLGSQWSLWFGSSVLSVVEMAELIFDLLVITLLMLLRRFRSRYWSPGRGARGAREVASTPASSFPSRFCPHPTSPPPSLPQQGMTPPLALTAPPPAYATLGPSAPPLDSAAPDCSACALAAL
T1 sequence (P37090 1-638 S518C): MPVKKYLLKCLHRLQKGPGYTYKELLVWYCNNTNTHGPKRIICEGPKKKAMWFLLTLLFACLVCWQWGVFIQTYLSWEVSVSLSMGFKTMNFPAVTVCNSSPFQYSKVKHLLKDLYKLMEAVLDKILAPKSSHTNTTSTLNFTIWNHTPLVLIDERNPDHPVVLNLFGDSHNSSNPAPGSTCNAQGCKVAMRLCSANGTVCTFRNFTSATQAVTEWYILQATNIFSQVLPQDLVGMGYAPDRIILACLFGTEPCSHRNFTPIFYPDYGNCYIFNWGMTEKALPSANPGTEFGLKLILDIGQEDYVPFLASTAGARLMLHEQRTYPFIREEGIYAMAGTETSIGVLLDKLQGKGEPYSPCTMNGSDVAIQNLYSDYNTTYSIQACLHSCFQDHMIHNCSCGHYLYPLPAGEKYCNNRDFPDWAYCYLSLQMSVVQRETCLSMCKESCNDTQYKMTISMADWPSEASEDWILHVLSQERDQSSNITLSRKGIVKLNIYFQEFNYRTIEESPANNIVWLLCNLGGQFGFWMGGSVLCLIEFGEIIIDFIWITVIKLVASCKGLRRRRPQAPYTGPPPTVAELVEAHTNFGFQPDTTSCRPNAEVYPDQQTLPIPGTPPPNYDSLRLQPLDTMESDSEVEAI
T1 sequence (P37091 1-650): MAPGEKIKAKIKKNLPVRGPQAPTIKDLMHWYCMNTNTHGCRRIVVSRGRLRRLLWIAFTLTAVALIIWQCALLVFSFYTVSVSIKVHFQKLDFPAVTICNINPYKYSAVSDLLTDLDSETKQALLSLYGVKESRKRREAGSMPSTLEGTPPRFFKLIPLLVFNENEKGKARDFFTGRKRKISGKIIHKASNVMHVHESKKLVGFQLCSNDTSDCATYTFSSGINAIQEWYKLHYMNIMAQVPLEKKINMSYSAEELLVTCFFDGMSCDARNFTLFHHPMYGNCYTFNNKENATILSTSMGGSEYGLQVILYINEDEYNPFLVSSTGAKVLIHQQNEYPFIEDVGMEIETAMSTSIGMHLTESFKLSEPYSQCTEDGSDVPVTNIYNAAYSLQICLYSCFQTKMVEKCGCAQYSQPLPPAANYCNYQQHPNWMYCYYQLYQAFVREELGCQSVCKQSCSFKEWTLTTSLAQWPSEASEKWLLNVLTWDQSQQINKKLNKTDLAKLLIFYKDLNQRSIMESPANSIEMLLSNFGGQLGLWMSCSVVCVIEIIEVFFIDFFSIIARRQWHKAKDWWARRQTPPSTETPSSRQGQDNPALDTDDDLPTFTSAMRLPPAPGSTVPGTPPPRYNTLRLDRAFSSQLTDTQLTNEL
Protocol: Oocyte studies. Xenopus laevis oocytes were harvested and injected as described (Donaldson, et al., J. Biol. Chem. 277:8338 (2002)). Defolliculated healthy stage V-VI oocytes were injected with 0.3 ng of cRNA of each ENaC subunit. Injected oocytes were kept in modified Barth's saline (in mM: 88 NaCl, 1 KCl, 2.4 NaHCO3, 0.3 Ca(NO3)2, 0.41 CaCl2, 0.82 MgSO4, and 15 HEPES, adjusted to pH 7.35 with Tris). Oocytes were studied 24 hr after injection using the two electrode voltage clamp technique as previously described (Donaldson, et al., J. Biol. Chem. 277:8338 (2002)). Oocytes were clamped at a holding potential of […]. The change in amiloride-sensitive whole cell current as an indicator of ENaC activity was determined by subtracting the corresponding current value measured in the presence of 10 μM amiloride from that measured before the application of amiloride.
The effect of SPLUNC1 on the number of ENaC channels in the plasma membrane was tested by expressing SPLUNC1 and αENaC in Xenopus oocytes. After surface biotinylation of αENaC, total lysate was prepared and lysate from 3-4 eggs was separated on a 10% gel.

B1: SPLUNC1: human SPLUNC1, 256 amino acid secreted PLUNC protein (SEQ ID NO:1); rSPLUNC1 = V5/6His-tagged protein purified from HEK293 media (protein, listed as Homo sapiens)
chain: MFQTGGLIVFYGLLAQTMAQFGGLPVPLDQTLPLNVNPALPLSPTGLAGSLTNALSNGLLSGGLLGILENLPLLDILKPGGGTSGGLLGGLLGKVTSVIPGLNNIIDIKVTDPQLLELGLVQSPDGHRLYVTIPLGIKLQVNTPLVGASLLRLAVKLDITAEILAVRDKQERIHLVLGDCTHSPGSLQISLLDGLGPLPIQGLLDSLTGILNKVLPELVQGNVCPLVNEVLRGLDITLVHDIVNMLIHGLQFVIKV
modifications: V5/6His tag
notes: rSPLUNC1 = V5/6His-tagged protein purified from HEK293 media
For B1, the “effect on the ability of trypsin to cleave fluorogenic substrate BGAR-MCA” value (trypsin) was roughly 10% and the “overall current with MTSET” value [1] was “still reduced”.

From patent publication US9549967B2, “Regulation of sodium channels by PLUNC proteins” (The University of North Carolina at Chapel Hill, priority 2009, dated 2017)
